Test results published in patent US20260297205 (published 2026).
Positions count from the first letter of the chain named. Blank lines part the entries; values can stand above or below the binder they belong to.

Biological target: human growth hormone (GH) (human, UniProt P01241)
Assay: SPR, 20C

Sequence of human growth hormone (GH) (P01241 27-217): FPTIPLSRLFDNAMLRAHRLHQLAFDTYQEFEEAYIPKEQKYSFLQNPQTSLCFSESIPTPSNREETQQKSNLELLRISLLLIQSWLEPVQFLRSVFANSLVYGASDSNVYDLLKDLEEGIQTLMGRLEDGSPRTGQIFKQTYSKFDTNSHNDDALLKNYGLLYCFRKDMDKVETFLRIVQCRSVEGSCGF

B1: GH35 (antibody, V domains shown)
VH: EVQLVESGGGLVQPGGSLRLSCAASGFNVYYSSIHWVRQAPGKGLEWVASIYSYSGYTSYADSVKGRFTISADTSKNTAYLQMNSLRAEDTAVYYCARWSYKAMDYWGQGTLVTV
VL: DIQMTQSPSSLSASVGDRVTITCRASQSVSSAVAWYQQKPGKAPKLLIYSASSLYSGVPSRFSGSRSGTDFTLTISSLQPEDFATYYCQQDYYAPITFGQGTKVEIKR
Kd: 14 nM

B3: GH19 (antibody, V domains shown)
VH: B1 VH with V29F, Y30S, S33Y, W99Y, S100K, Y101W, K102W
VL: B1 VL with D91S, Y92G, Y93S, A94W
Kd: 5.9 nM

B7: GH32 (antibody, V domains shown)
VH: B1 VH with V29F, Y31S, S33Y, W99Y, S100K, K102M, A103G
VL: B1 VL with D91S, Y92S, Y93W, A94M
Kd: 17 nM

B9: GH10 (antibody, V domains shown)
VH: EVQLVESGGGLVQPGGSLRLSCAASGFNFYSSSIHWVRQAPGKGLEWVAYISPYSGYTSYADSVKGRFTISADTSKNTAYLQMNSLRAEDTAVYYCARIAYKWYMPYYYGMDYWGQGTLVTV
VL: B1 VL with D91S, Y92L, Y93S, A94S, P95L, I96V
Kd: 3.6 nM

B10: GH2 (antibody, V domains shown)
VH: EVQLVESGGGLVQPGGSLRLSCAASGFNVSSSYIHWVRQAPGKGLEWVASIYSYYGYTSYADSVKGRFTISADTSKNTAYLQMNSLRAEDTAVYYCARENYGNWRSMYSGMDYWGQGTLVTV
VL: B1 VL with D91S, Y93F, A94L, I96F
Kd: 0.9 nM

B11: GH20 (antibody, V domains shown)
VH: B1 VH with Y30S, Y31S, S33Y, W99Y, S100K, Y101W, K102Y
VL: B1 VL with D91S, Y92S, Y93W, A94Y
Kd: 1.9 nM

B16: GH3 (antibody, V domains shown)
VH: EVQLVESGGGLVQPGGSLRLSCAASGFNVSSSSIHWVRQAPGKGLEWVAYISSYYGYTSYADSVKGRFTISADTSKNTAYLQMNSLRAEDTAVYYCAREGWYWWAMDYWGQGTLVTV
VL: B1 VL with D91A, Y92W, A94L
Kd: 21 nM

B18: GH1 (antibody, V domains shown)
VH: EVQLVESGGGLVQPGGSLRLSCAASGFNFYYSSIHWVRQAPGKGLEWVAYIYSYSGYTSYADSVKGRFTISADTSKNTAYLQMNSLRAEDTAVYYCARYSWWGGMDYWGQGTLVTV
VL: B1 VL with D91S, Y93S, A94V
Kd: 1.5 nM

B22: GH21 (antibody, V domains shown)
VH: B1 VH with Y30S, Y31S, S33Y, W99Y, S100M, K102Y
VL: B1 VL with D91S, Y92S, Y93W, A94S
Kd: 7.5 nM

B23: GH12 (antibody, V domains shown)
VH: EVQLVESGGGLVQPGGSLRLSCAASGFNLSSSYIHWVRQAPGKGLEWVASIYPYSGYTSYADSVKGRFTISADTSKNTAYLQMNSLRAEDTAVYYCARMYWTGALDYWGQGTLVTV
VL: B1 VL with D91S, Y92S, A94S
Kd: 0.08 nM

B24: GH7 (antibody, V domains shown)
VH: B16 VH with S30Y, Y50S, S52Y, Y55S, E99G, G100R, W101Y, Y102S, W104F, M106L
VL: B1 VL with D91Y, Y92W, Y93S, A94F
Kd: 6.1 nM

B25: GH25 (antibody, V domains shown)
VH: EVQLVESGGGLVQPGGSLRLSCAASGFNFSYYSIHWVRQAPGKGLEWVASISSYYGYTSYADSVKGRFTISADTSKNTAYLQMNSLRAEDTAVYYCARYFLGMDYWGQGTLVTV
VL: B1 VL with D91Y, Y92R, A94P
Kd: 0.14 nM

B27: GH16 (antibody, V domains shown)
VH: EVQLVESGGGLVQPGGSLRLSCAASGFNLSSYYIHWVRQAPGKGLEWVASIYPSYGYTSYADSVKGRFTISADTSKNTAYLQMNSLRAEDTAVYYCARWGKWYGYPFSGLDYWGQGTLVTV
VL: B1 VL with Y92W, A94F
Kd: 3.4 nM

B28: GH42 (antibody, V domains shown)
VH: EVQLVESGGGLVQPGGSLRLSCAASGFNFSSSYIHWVRQAPGKGLEWVASISSSSGSTSYADSVKGRFTISADTSKNTAYLQMNSLRAEDTAVYYCARSPWYVYWYFGSALDYWGQGTLVTV
VL: B1 VL with D91S, Y92S, Y93S, A94S, P95L
Kd: 2.2 nM

Results, then the binder that gave them:

Kd: 20 nM
B2: GH34 (antibody, V domains shown)
VH: B1 VH with V29F, Y30S, S53P, Y54S, S55Y, W99Y, S100Y, K102F, A103G
VL: B1 VL with D91S, Y92W, Y93S, A94M, I96L

Kd: 0.3 nM
B4: GH13 (antibody, V domains shown)
VH: EVQLVESGGGLVQPGGSLRLSCAASGFNFSSSSIHWVRQAPGKGLEWVASISSYYSSTYYADSVKGRFTISADTSKNTAYLQMNSLRAEDTAVYYCARQYTSPWHWYKAMDYWGQGTLVTV
VL: B1 VL with D91S, Y92S, Y93S, A94S, P95L

Kd: 3.9 nM
B5: GH15 (antibody, V domains shown)
VH: EVQLVESGGGLVQPGGSLRLSCAASGFNVSSSYIHWVRQAPGKGLEWVASIYSYSGYTSYADSVKGRFTISADTSKNTAYLQMNSLRAEDTAVYYCARTSYGRGALDYWGQGTLVTV
VL: B1 VL with D91W, Y92S, Y93W, A94Y

Kd: 0.7 nM
B6: GH14 (antibody, V domains shown)
VH: B18 VH with Y31S, Y50S, S55Y, Y99S, S100G, W101G, W102Y, G103I, M105F
VL: B1 VL with D91Y, Y92W, Y93E, A94Y, I96F

Kd: 18 nM
B8: GH9 (antibody, V domains shown)
VH: B1 VH with Y31S, S33Y, W99H, Y101S, K102W
VL: B1 VL with D91S, Y92S, Y93F, A94V, I96L

Kd: 0.17 nM
B12: GH23 (antibody, V domains shown)
VH: B1 VH with Y30S, Y31S, S33Y, W99F, S100W, Y101V, K102W
VL: B1 VL with D91S, Y92S, A94I, I96L

Kd: 8.1 nM
B13: GH38 (antibody, V domains shown)
VH: EVQLVESGGGLVQPGGSLRLSCAASGFNVYSSSIHWVRQAPGKGLEWVASIYPSYGYTSYADSVKGRFTISADTSKNTAYLQMNSLRAEDTAVYYCARWHWGWGSYGWGMDYWGQGTLVTV
VL: B1 VL with D91Q, Y92W, A94V

Kd: 1.3 nM
B14: GH24 (antibody, V domains shown)
VH: B16 VH with Y50S, S52Y, Y54S, E99G, G100D, W101R, W103V
VL: B1 VL with D91S, Y92S, Y93S, A94Y, I96F

Kd: 5.4 nM
B15: GH4 (antibody, V domains shown)
VH: B13 VH with Y30S, S33Y, P53S, W99E, H100S, W103S, S105Y, G107T, G109A
VL: B1 VL with D91S, Y92W, Y93R, A94Y, I96F

Kd: 5.8 nM
B17: GH33 (antibody, V domains shown)
VH: B5 VH with V29F, S30Y, T99Y, S100W, G102Y, R103Y, G104N, A105G, L106M
VL: B1 VL with D91I, Y92R, A94V

Kd: 4.9 nM
B19: GH5 (antibody, V domains shown)
VH: B16 VH with S32Y, S33Y, Y50S, S52Y, E99G, G100D, W101N, W103S
VL: B1 VL with D91S, Y92W, Y93Q, A94Y, I96F

Kd: 1.1 nM
B20: GH22 (antibody, V domains shown)
VH: B23 VH with L29F, P53S, M99Y, Y100R, W101F, T102I, L105M
VL: B1 VL with D91S, Y92H, Y93W, A94S

Kd: 12.5 nM
B21: GH18 (antibody, V domains shown)
VH: B18 VH with Y31S, S33Y, Y50S, S100K, W101E, W102P, G103F
VL: B1 VL with D91S, Y92N, A94M, I96L

Kd: 0.04 nM
B26: GH6 (antibody, V domains shown)
VH: B16 VH with S31Y, Y50S, S52Y, Y54S, E99G, G100H, W101G, Y102S, W103M
VL: B1 VL with D91S, Y92W, Y93S, A94L, I96F

Kd: 0.3 nM
B29: GH11 (antibody, V domains shown)
VH: EVQLVESGGGLVQPGGSLRLSCAASGFNIYSSSIHWVRQAPGKGLEWVASISSSSGSTSYADSVKGRFTISADTSKNTAYLQMNSLRAEDTAVYYCARKYSGYYSNWYYPALDYWGQGTLVTV
VL: B1 VL with D91S, Y92S, Y93S, A94S, P95L

Kd: 2.6 nM
B30: GH41 (antibody, V domains shown)
VH: EVQLVESGGGLVQPGGSLRLSCAASGFNFSSSSIHWVRQAPGKGLEWVASISPYSGYTSYADSVKGRFTISADTSKNTAYLQMNSLRAEDTAVYYCARGYGGWYWWYTFAFDYWGQGTLVTV
VL: DIQMTQSPSSLSASVGDRVTITCRASQSVSSAVAWYQQKPGKAPKLLIYSASSLYSGVPSRFSGSRSGTDFTLTISSLQPEDFATYYCQQSSSSELLTFGQGTKVEIKR
